Data on 1 molecule can be found in patent publication US20090104177A1, “PEPTIDES FOR INHIBITING THE INTERACTION OF PROTEIN KINASE A AND PROTEIN KINASE A ANCHOR PROTEINS” (FORSCHUNGSVERBUND BERLIN E.V., priority 2004, published 2009).

Assay [1] concerns the target T1, regulatory RIIα subunit of PKA (human) (human, UniProt P13861 1-404, 32P-labelled with the catalytic subunit of PKA when used as probe in the RII overlay experiments).
T1 construct: Radiolabelled probe in RII overlays; format in the surface plasmon resonance measurements is not described; also called human RIIα
Nature of the assay: RII overlay: SPOT peptides on membrane, probe 32P-labelled RIIα, phosphoimager.

For assay [2], the target named is T2, regulatory RIIβ subunit of PKA (rat) (rat, UniProt P12369 1-416, 32P-labelled with the catalytic subunit of PKA when used as probe in the RII overlay experiments).
T2 construct: Radiolabelled probe in RII overlays; format in the surface plasmon resonance measurements is not described; also called RIIβ subunit of PKA from rats
Nature of the assay: RII overlay: SPOT peptides on membrane, probe 32P-labelled RIIβ, phosphoimager.

T2 sequence (P12369 whole entry): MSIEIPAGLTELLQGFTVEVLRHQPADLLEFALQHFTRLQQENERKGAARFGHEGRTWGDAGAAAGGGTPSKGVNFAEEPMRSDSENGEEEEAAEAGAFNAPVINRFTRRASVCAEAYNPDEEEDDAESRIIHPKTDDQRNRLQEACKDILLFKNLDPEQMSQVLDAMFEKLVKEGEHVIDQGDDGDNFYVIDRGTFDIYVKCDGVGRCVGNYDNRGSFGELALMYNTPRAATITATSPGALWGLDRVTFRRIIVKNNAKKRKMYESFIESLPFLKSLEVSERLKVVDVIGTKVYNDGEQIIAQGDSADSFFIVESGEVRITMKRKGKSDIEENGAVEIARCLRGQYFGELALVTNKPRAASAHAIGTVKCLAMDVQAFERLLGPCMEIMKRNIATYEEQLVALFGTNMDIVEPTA
T1 sequence (P13861 whole entry): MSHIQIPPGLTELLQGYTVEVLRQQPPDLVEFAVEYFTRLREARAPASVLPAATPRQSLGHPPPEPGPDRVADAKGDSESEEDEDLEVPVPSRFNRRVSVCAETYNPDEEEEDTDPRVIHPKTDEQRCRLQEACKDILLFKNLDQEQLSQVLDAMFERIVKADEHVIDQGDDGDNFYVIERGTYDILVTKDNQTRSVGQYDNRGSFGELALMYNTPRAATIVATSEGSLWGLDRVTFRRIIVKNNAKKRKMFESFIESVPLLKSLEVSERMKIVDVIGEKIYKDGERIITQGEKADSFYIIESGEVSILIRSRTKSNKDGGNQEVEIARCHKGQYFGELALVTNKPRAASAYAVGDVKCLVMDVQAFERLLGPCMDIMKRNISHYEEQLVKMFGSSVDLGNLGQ

With EPEDAELVRLSKRLVENAVLKAVQQYLEETQ (also called Akap18delta-RI; No. AA) [AKAP18δ-RI], the binding result in assay [1] and in assay [2] was “binds” throughout.
